Target: PROTEOLYSIS1 (PRT1) (Arabidopsis thaliana) (UniProt Q8LBL5)
Sequence (Q8LBL5 whole entry): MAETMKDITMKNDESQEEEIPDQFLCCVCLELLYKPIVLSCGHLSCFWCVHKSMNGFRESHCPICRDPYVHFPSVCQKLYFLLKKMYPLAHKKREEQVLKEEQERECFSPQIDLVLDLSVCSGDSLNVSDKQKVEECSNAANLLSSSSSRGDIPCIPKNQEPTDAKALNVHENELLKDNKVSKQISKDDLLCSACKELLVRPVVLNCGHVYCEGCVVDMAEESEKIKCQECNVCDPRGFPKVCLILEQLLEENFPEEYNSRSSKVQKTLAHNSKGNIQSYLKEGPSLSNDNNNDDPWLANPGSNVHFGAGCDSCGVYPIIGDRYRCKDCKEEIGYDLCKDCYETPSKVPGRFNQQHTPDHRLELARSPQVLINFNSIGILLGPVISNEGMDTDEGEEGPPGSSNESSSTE

Sequence of E2-conjugating enzyme UBC8 (P35131 whole entry): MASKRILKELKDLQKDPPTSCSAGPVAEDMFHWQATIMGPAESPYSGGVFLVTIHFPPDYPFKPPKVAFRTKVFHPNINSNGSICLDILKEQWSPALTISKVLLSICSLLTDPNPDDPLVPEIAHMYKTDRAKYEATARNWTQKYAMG

Michaelis-Menten constant (K M) of substrate ubiquitination by PRT1 at different E2 concentrations (fluorescence polarization of the F-eK-Flv-NBD substrate, UBC8 up to 2 μM): 0.08 µM
Substance: E2-conjugating enzyme UBC8 (from UniProt P35131 1-148)

— publication PMC5763331
